Data on seven molecules can be found in US20210269521A1 (L AND L BIOPHARMA, published 2021).

Experiment [1] deals with T1, human TIM-3 extracellular domain-human IgG1 Fc fusion protein (human, UniProt Q8TDQ0 22-199).
T1 construct: Made in house or bought (ACROBiosystems TM3-H5258); also called TIM-3-hFc; not shown: human IgG1 Fc
The experiment can be described thus: ELISA, EC50 of bispecific over EC50 of the monoclonal control.

The target of experiment [2] is T1, human TIM-3 extracellular domain-human …. The experiment in a line: ELISA. As to the method: Goat-anti-hFc (Jackson, 109-005-008) was diluted to a concentration of 1 μg/ml with PBS buffer (pH 7.4) and added to a 96-well microplate (Corning, CLS3590-100EA) at a volume of 50 μl/well, then incubated in an incubator at 37° C. for 2 hours (Or the antigen TIM-3 was directly used to coat the microplate with a concentration of 0.5 μg/ml, and then the antibody to be tested was directly added). After discarding the liquid, a blocking solution of 5% skimmed milk (skimmed milk powder purchased from Bright) diluted with PBS was added at 200 μl per well, and the microplate was incubated for 2.5 hours at 37° C. or overnight (16-18 hours) at 4° C. for blocking. The blocking solution was discarded, and the microplate was washed 5 times with PBST buffer (PBS with pH 7.4 containing 0.05% tween-20), then 50 μl/well of 0.5 μg/ml TIM-3-hFc (Example 1) was added and incubated for 2 hours in a 37° C. incubator. After incubation, the microplate was washed 6 times with PB ST. 50 μl/well of supernatant (containing testing antibody) or different concentrations of the antibody to be tested was added, and the microplate was incubated at 37° C. for 2 hours and washed 5 times with PBST. 50 μl/well of 1:2500 diluted HRP-labeled secondary antibody (Jackson Immuno Research, 115-035-003) was added to the microplate, incubating at 37° C. for 1 hour. After washing the microplate 5 times with PBST, 50 μl/well TMB chromogenic substrate (KPL, 52-00-03) was added to the microplate, followed by incubating at room temperature for 10-15 min.
(In general: In an ELISA, binding on a coated surface is turned into a signal by an enzyme label.)

The target of experiment [3] is T2, human PD-1 extracellular domain protein expressed in Example 1 (tag not stated) (human, UniProt Q15116 25-170).
T2 construct: extracellular domain; also called PD-1 protein; not shown: human IgG1 Fc or his tag
The experiment can be described thus: ELISA, PD-1 coated. As to the method: (§1) PD-1 expressed in Example 1 was diluted to a concentration of 1 μg/ml with PBS buffer, pH 7.4, and added to a 96-well microplate (Corning, CLS3590-100EA) at 50 μl per well, thereby incubating in an incubator at 37° C. for 2 hours. After discarding the liquid, a blocking solution of 5% skimmed milk (Shanghai Shenggong Biological Engineering Co., Ltd., A600669-0250) diluted with PBS was added at 200 μl per well, followed by incubating at 37° C. for 3 hours or 4° C. overnight (16-18 hours)) for blocking. Subsequently, the blocking solution was discarded, and the microplate was washed 5 times with PBST buffer (pH 7.4 PBS containing 0.05% tween-20). […] Subsequently, the microplate was washed 5 times with PBST, then 50 μl/well of 1:2500 diluted HRP-labeled secondary antibody (Jackson Immuno Research, 115-035-003) was added, thereby incubating at 37° C. for 1 hour. After washing the microplate 5 times with PBST, 50 μl/well TMB chromogenic substrate (KPL, 52-00-03) was added, then incubated at room temperature for 5-10 min. Finally, 50 μl/well of 1M H₂SO₄ was added to stop the reaction. […] Go microplate reader (ThermoFisher, 51119200) was used to read the absorption value at 450 nm and the EC50 based on the OD value was calculated.

In experiment [4] the target is T2, human PD-1 extracellular domain protein …. The experiment can be described thus: ELISA, EC50 of bispecific over EC50 of the monoclonal control. As to the method: After washing the microplate 5 times with PBST, 50 μl/well TMB chromogenic substrate (KPL, 52-00-03) was added to the microplate, followed by incubating at room temperature for 10-15 min.
as §1

B1: bispecific antibody LB1413 (bispecific antibody, human IgG4 S228P, kappa)
light: DIQMTQSPSSLSASVGDRVTITCHASQGISSNIGWLQQKPGKAFKGLIYQGSNLEDGVPSRFSGSGSGADYTLTISSLQPEDFATYYCVQFAQFPPTFGQGTKLEIKGGGGSGGGGSGGGGSEVQLVESGGGLVKPGGSLRLSCAASGFTFSDYYMAWVRQAPGKGLEWVANINYDGSNTYYLDSLKSRFTISRDNAKNSLYLQMNSLRAEDTAVYYCARGLYYYGGNYFAYWGQGTLVTVSSGGGGSGGGGSGGGGSEIVLTQSPATLSLSPGERATLSCRASKGVSTSGYSYLHWYQQKPGQAPRLLIYLASYLESGVPARFSGSGSGTDFTLTISSLEPEDFAVYYCQHSRDLPLTFGGGTKVEIKRTVAAPSVFIFPPSDEQLKSGTASVVCLLNNFYPREAKVQWKVDNALQSGNSQESVTEQDSKDSTYSLSSTLTLSKADYEKHKVYACEVTHQGLSSPVTKSFNRGEC
heavy: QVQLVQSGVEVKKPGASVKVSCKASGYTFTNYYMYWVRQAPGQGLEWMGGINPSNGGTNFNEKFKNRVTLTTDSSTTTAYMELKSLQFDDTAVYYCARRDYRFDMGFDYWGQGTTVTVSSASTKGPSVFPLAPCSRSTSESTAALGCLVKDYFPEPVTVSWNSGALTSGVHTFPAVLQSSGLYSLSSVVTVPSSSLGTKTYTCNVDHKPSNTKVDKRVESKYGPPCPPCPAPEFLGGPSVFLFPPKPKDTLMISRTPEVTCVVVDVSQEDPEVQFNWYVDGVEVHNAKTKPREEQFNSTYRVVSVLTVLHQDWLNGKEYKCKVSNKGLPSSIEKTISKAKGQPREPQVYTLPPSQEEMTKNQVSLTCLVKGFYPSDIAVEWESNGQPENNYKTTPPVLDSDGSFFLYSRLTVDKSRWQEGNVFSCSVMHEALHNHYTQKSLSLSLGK
notes: ab6VL-(G4S)3-ab6VH-(G4S)3-PemVL-κ with PemVH-hIgG4
As usually defined, the EC50 is the midpoint of the concentration-response curve. Read a high EC50 as lower potency in that assay. On to B1, for which the “Multiple of EC50 variation” value in experiment [1] was 0.67 ratio; in experiment [4], 0.69 ratio. Besides, the EC50 in experiment [2] turned out to be 0.521 nM; in experiment [3], 0.066 nM.

B2: bispecific antibody LB241 (bispecific antibody, human IgG4 S228P, kappa)
light: B1 light
heavy: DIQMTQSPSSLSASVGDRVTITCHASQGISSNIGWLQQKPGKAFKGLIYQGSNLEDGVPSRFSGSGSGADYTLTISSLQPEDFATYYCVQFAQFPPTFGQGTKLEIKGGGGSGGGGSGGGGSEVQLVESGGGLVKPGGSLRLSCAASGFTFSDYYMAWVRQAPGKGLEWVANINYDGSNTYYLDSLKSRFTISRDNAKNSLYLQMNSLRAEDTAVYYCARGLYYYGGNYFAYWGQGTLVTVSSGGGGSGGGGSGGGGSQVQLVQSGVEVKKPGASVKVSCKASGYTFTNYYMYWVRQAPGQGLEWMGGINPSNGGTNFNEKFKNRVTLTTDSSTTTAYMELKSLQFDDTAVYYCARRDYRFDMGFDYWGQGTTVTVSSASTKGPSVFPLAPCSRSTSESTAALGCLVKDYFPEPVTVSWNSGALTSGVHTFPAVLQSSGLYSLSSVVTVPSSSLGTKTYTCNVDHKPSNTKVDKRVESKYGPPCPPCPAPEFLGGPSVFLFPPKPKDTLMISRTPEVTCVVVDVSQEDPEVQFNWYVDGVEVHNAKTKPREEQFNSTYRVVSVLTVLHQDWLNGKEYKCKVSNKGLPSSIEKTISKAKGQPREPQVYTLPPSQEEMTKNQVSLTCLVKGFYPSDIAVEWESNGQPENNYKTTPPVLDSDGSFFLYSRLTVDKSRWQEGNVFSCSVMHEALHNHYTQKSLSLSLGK
With B2, the “Multiple of EC50 variation” value in experiment [1] worked out at 0.7 ratio; in experiment [4] it was 3.8 ratio. Also, the EC50 in experiment [2] came to 0.547 nM; in experiment [3], 0.365 nM.

B3: bispecific antibody LB244 (bispecific antibody, human IgG4 S228P, kappa)
light: B1 light
heavy: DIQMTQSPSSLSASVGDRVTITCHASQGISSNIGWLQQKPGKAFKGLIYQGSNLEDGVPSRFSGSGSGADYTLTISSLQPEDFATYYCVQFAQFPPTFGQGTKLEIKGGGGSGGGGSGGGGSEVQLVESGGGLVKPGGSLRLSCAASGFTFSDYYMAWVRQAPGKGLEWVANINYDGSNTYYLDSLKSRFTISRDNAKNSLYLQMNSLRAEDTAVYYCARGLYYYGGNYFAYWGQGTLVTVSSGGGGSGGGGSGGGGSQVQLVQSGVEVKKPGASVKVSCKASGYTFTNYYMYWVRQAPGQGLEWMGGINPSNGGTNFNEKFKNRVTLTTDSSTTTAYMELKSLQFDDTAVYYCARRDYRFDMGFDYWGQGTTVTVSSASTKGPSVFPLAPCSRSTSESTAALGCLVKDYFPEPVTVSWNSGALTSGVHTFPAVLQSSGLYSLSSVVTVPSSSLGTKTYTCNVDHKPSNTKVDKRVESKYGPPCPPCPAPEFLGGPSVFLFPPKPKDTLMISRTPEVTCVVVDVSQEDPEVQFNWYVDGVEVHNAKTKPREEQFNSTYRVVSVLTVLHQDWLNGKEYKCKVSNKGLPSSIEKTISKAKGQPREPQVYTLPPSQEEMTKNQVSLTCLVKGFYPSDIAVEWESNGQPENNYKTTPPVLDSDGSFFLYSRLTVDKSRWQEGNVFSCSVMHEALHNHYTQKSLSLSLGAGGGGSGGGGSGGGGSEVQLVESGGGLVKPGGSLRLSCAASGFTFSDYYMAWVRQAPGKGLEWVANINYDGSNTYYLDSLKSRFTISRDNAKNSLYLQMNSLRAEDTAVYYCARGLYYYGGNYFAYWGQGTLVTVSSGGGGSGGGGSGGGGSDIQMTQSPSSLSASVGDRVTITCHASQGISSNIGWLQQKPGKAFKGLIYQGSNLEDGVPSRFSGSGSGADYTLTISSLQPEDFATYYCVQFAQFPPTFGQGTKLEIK
On to B3, for which the “Multiple of EC50 variation” value in experiment [1] turned out to be 1.32 ratio; in experiment [4], 0.68 ratio. For the same molecule, the EC50 came out at 0.21 nM in experiment [2] and 0.18 nM in experiment [3].

B4: bispecific antibody LB1414 (bispecific antibody, human IgG4 S228P, kappa)
light: EIVLTQSPATLSLSPGERATLSCRASKGVSTSGYSYLHWYQQKPGQAPRLLIYLASYLESGVPARFSGSGSGTDFTLTISSLEPEDFAVYYCQHSRDLPLTFGGGTKVEIKRTVAAPSVFIFPPSDEQLKSGTASVVCLLNNFYPREAKVQWKVDNALQSGNSQESVTEQDSKDSTYSLSSTLTLSKADYEKHKVYACEVTHQGLSSPVTKSFNRGECGGGGSGGGGSGGGGSEVQLVESGGGLVKPGGSLRLSCAASGFTFSDYYMAWVRQAPGKGLEWVANINYDGSNTYYLDSLKSRFTISRDNAKNSLYLQMNSLRAEDTAVYYCARGLYYYGGNYFAYWGQGTLVTVSSGGGGSGGGGSGGGGSDIQMTQSPSSLSASVGDRVTITCHASQGISSNIGWLQQKPGKAFKGLIYQGSNLEDGVPSRFSGSGSGADYTLTISSLQPEDFATYYCVQFAQFPPTFGQGTKLEIK
heavy: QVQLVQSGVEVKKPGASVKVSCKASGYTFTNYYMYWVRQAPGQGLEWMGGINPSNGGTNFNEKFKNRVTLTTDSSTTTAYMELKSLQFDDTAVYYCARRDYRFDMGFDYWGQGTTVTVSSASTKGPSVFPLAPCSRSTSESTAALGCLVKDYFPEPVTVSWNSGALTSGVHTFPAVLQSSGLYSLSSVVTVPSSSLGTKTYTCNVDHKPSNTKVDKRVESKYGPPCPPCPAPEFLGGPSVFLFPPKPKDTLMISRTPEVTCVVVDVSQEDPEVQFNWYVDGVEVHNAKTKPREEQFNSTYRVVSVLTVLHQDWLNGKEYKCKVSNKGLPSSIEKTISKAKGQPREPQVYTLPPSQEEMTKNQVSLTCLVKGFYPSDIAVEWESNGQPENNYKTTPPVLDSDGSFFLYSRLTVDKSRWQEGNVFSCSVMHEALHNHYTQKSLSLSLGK
With B4, the “Multiple of EC50 variation” value in experiment [1] worked out at 4.5 ratio; in experiment [4], 0.47 ratio. In addition, the values for the EC50 in experiment [2] and in experiment [3] were 3.52 nM and 0.045 nM, respectively.

B5: bispecific antibody LB242 (bispecific antibody, human IgG4 S228P, kappa)
light: B4 light
heavy: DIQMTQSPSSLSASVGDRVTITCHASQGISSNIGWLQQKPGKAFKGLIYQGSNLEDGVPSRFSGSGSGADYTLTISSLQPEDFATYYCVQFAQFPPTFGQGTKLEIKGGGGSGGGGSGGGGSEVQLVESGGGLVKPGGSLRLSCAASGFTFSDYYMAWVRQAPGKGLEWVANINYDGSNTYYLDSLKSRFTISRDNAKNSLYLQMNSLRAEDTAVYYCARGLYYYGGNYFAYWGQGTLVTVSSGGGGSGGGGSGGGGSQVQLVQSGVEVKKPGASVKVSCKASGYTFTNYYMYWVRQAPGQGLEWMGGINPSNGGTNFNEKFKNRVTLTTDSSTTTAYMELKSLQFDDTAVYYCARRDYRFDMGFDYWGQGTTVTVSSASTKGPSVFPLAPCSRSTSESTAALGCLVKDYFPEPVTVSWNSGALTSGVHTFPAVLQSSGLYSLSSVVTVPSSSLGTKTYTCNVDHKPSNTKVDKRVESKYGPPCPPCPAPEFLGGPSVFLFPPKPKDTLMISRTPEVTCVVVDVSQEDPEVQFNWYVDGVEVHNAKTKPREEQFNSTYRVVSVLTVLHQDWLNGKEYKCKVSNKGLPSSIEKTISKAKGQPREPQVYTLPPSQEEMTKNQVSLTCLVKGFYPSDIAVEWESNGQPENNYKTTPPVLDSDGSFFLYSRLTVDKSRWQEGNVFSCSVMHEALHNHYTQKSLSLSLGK
Regarding B5, the “Multiple of EC50 variation” value in experiment [1] came out at 0.78 ratio; in experiment [4] it was 0.32 ratio. Moreover, the EC50 in experiment [2] was determined as 0.124 nM; in experiment [3], 0.084 nM.

B6: bispecific antibody LB243 (bispecific antibody, human IgG4 S228P, kappa)
light: DIQMTQSPSSLSASVGDRVTITCHASQGISSNIGWLQQKPGKAFKGLIYQGSNLEDGVPSRFSGSGSGADYTLTISSLQPEDFATYYCVQFAQFPPTFGQGTKLEIKGGGGSGGGGSGGGGSEVQLVESGGGLVKPGGSLRLSCAASGFTFSDYYMAWVRQAPGKGLEWVANINYDGSNTYYLDSLKSRFTISRDNAKNSLYLQMNSLRAEDTAVYYCARGLYYYGGNYFAYWGQGTLVTVSSGGGGSGGGGSGGGGSEIVLTQSPATLSLSPGERATLSCRASKGVSTSGYSYLHWYQQKPGQAPRLLIYLASYLESGVPARFSGSGSGTDFTLTISSLEPEDFAVYYCQHSRDLPLTFGGGTKVEIKRTVAAPSVFIFPPSDEQLKSGTASVVCLLNNFYPREAKVQWKVDNALQSGNSQESVTEQDSKDSTYSLSSTLTLSKADYEKHKVYACEVTHQGLSSPVTKSFNRGECGGGGSGGGGSGGGGSEVQLVESGGGLVKPGGSLRLSCAASGFTFSDYYMAWVRQAPGKGLEWVANINYDGSNTYYLDSLKSRFTISRDNAKNSLYLQMNSLRAEDTAVYYCARGLYYYGGNYFAYWGQGTLVTVSSGGGGSGGGGSGGGGSDIQMTQSPSSLSASVGDRVTITCHASQGISSNIGWLQQKPGKAFKGLIYQGSNLEDGVPSRFSGSGSGADYTLTISSLQPEDFATYYCVQFAQFPPTFGQGTKLEIK
heavy: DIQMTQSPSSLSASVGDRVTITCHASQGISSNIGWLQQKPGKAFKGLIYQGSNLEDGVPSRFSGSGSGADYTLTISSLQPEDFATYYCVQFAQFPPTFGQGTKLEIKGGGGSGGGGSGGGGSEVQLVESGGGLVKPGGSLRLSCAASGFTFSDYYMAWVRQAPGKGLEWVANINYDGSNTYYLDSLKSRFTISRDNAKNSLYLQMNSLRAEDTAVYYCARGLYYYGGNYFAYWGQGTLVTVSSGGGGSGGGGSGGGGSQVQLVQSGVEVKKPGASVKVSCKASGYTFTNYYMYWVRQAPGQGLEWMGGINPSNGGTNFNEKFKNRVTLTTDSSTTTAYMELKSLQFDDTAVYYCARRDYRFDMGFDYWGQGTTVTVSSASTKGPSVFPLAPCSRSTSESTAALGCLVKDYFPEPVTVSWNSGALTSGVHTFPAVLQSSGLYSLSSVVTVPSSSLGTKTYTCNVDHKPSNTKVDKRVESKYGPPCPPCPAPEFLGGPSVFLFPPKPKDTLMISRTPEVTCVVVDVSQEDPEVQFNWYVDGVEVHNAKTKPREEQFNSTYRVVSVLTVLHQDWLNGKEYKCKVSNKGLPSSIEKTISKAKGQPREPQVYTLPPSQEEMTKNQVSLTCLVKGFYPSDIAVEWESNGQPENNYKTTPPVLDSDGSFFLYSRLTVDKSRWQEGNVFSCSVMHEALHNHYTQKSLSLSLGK
Regarding B6, the “Multiple of EC50 variation” value in experiment [1] is 1.36 ratio; in experiment [4] it was 0.81 ratio. In addition, the EC50 in experiment [2] is 0.216 nM; in experiment [3] it was 0.214 nM.

B7: bispecific antibody LB1412 (bispecific antibody, human IgG4 S228P, kappa)
light: EIVLTQSPATLSLSPGERATLSCRASKGVSTSGYSYLHWYQQKPGQAPRLLIYLASYLESGVPARFSGSGSGTDFTLTISSLEPEDFAVYYCQHSRDLPLTFGGGTKVEIKRTVAAPSVFIFPPSDEQLKSGTASVVCLLNNFYPREAKVQWKVDNALQSGNSQESVTEQDSKDSTYSLSSTLTLSKADYEKHKVYACEVTHQGLSSPVTKSFNRGEC
heavy: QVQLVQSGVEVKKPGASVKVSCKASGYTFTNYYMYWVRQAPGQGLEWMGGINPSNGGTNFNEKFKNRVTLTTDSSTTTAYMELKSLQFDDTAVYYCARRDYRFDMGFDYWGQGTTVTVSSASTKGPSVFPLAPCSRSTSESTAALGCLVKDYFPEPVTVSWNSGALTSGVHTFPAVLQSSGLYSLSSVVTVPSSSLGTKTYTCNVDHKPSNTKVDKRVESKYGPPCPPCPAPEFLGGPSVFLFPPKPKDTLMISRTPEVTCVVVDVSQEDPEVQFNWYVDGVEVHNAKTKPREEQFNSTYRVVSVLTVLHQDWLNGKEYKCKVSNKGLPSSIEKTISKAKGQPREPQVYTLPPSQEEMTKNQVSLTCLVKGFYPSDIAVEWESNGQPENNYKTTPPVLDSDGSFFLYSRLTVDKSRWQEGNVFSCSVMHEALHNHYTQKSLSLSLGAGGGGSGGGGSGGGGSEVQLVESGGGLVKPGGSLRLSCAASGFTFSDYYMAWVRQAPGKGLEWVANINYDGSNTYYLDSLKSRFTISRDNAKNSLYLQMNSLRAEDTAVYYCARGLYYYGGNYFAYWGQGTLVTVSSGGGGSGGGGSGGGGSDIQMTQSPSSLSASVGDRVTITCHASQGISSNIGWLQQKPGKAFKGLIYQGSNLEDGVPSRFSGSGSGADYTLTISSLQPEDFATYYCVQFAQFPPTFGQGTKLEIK
As to B7, the figures for the “Multiple of EC50 variation” value in experiment [1] and in experiment [4] were 4.37 ratio and 0.82 ratio, respectively. Besides, the EC50 in experiment [2] stood at 3.42 nM; in experiment [3], 0.079 nM.
